This passage reports Ad5LucFF/6H-expressed luciferase activities in 293/6H cells expressing AR compared to parental 293 cells (orders of magnitude) results from patent publication US20050095231A1.

This experiment concerns the target artificial receptor (AR) on 293/6H cells: anti-5His single chain antibody fused with the transmembrane domain of the PDGF receptor. The experiment can be described thus: cell-based or functional assay.

As for “fiber-fibritin-6His chimera (FF/6H), as carried by Ad5LucFF/6H virions”, the Ad5LucFF/6H-expressed luciferase activities in 293/6H cells expressing AR compared to parental 293 cells (orders of magnitude) was found to be 2.
